# From PMC10397247
# Like-named read-outs stand apart in the source and are kept apart here.
# What was measured:
# Experiment in all cases: two-hybrid library CCmax;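 further: natural log of median RNA to DNA barcode read ratio; higher means stronger binding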
# 4H_BCR = target: T1, 4H_BCR; details: mean of both orientations
# T1 chain: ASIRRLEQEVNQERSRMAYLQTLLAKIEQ
# 4H_APH = target: T2, 4H_APH; details: mean of both orientations
# T2 chain: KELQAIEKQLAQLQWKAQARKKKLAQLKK
# 4H249-AA = target: T3, 4H249-AA
# T3 chain: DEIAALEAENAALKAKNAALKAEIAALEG
# 4H2611-AA = target: T4, 4H2611-AA; details: mean of both orientations
# T4 chain: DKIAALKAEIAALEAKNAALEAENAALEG
# GCN2_T = target: GCN2_T
# 4H3381-AA = target: T5, 4H3381-AA; details: mean of both orientations
# T5 chain: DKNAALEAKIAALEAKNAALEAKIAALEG
# 4H_GCN4 = target: 4H_GCN4
# 4H3865-AA = target: T6, 4H3865-AA; details: mean of both orientations
# T6 chain: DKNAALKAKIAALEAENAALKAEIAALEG
# 4H3697-AA = target: T7, 4H3697-AA; details: mean of both orientations
# T7 chain: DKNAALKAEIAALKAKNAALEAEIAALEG
# 4H717-AA = target: T8, 4H717-AA; details: mean of both orientations
# T8 chain: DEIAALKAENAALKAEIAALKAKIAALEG
# 4H3606-AA = target: T9, 4H3606-AA
# T9 chain: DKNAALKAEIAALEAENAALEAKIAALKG
# 4H3718-AA = target: T10, 4H3718-AA
# T10 chain: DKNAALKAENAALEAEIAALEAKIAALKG
# 4H3631-AA = target: T11, 4H3631-AA; details: mean of both orientations
# T11 chain: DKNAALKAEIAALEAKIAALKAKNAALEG
# 4H697-AA = target: T12, 4H697-AA; details: mean of both orientations
# T12 chain: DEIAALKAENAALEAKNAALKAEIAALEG
# 4H982-AA = target: T13, 4H982-AA; details: mean of both orientations
# T13 chain: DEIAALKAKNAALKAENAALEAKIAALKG
# 4H570-AA = target: T14, 4H570-AA
# T14 chain: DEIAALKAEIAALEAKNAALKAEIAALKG
# 4H797-AA = target: T15, 4H797-AA; details: mean of both orientations
# T15 chain: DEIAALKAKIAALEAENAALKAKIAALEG
# 4H2725-AA = target: T16, 4H2725-AA; details: mean of both orientations
# T16 chain: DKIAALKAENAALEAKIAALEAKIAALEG
# 4H3753-AA = target: T17, 4H3753-AA; details: mean of both orientations
# T17 chain: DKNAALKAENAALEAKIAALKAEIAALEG
# 4H629-AA = target: T18, 4H629-AA; details: mean of both orientations
# T18 chain: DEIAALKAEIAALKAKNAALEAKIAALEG
# 4H2253-AA = target: T19, 4H2253-AA; details: mean of both orientations
# T19 chain: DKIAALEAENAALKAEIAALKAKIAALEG
# 4H2473-AA = target: T20, 4H2473-AA; details: mean of both orientations
# T20 chain: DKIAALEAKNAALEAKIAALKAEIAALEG
# 4H3009-AA = target: T21, 4H3009-AA; details: mean of both orientations
# T21 chain: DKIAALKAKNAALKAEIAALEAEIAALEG
# 4H710-AA = target: T22, 4H710-AA; details: mean of both orientations
# T22 chain: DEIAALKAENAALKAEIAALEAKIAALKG
# 4H3395-AA = target: T23, 4H3395-AA; details: mean of both orientations
# T23 chain: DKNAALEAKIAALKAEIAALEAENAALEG
# 4H3590-AA = target: T24, 4H3590-AA; details: mean of both orientations
# T24 chain: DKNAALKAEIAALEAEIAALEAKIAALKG
# 4H2438-AA = target: T25, 4H2438-AA; details: mean of both orientations
# T25 chain: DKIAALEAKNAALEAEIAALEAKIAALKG
# 4H745-AA = target: T26, 4H745-AA; details: mean of both orientations
# T26 chain: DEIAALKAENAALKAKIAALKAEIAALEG
# 4H909-AA = target: T27, 4H909-AA; details: mean of both orientations
# T27 chain: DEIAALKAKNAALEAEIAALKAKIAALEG
# 4H2274-AA = target: T28, 4H2274-AA; details: mean of both orientations
# T28 chain: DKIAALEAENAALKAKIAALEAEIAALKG
# 4H850-AA = target: T29, 4H850-AA; details: mean of both orientations
# T29 chain: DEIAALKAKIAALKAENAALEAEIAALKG
# 4H458-AA = target: T30, 4H458-AA; details: mean of both orientations
# T30 chain: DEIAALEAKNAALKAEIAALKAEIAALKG
# 4H3120-AA = target: T31, 4H3120-AA; details: mean of both orientations
# T31 chain: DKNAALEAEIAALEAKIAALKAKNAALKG
# 4H3130-AA = target: T32, 4H3130-AA; details: mean of both orientations
# T32 chain: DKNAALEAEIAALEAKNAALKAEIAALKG
# 4H3410-AA = target: T33, 4H3410-AA; details: mean of both orientations
# T33 chain: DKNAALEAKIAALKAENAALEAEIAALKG
# 4H3165-AA = target: T34, 4H3165-AA
# T34 chain: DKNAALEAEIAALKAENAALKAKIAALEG
# 4H3016-AA = target: T35, 4H3016-AA; details: mean of both orientations
# T35 chain: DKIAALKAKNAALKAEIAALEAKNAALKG
# 4H2865-AA = target: T36, 4H2865-AA; details: mean of both orientations
# T36 chain: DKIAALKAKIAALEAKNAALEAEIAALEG
# 4H536-AA = target: T37, 4H536-AA; details: mean of both orientations
# T37 chain: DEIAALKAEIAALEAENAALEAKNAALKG
# 4H2389-AA = target: T38, 4H2389-AA; details: mean of both orientations
# T38 chain: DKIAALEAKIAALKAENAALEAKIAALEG
# 4H2330-AA = target: T39, 4H2330-AA; details: mean of both orientations
# T39 chain: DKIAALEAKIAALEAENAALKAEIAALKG
# 4H930-AA = target: T40, 4H930-AA; details: mean of both orientations
# T40 chain: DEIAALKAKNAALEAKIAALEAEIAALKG
# 4H891-AA = target: T41, 4H891-AA; details: mean of both orientations
# T41 chain: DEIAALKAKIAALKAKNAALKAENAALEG
# Sequence of 4H_GCN4 (chain, as listed by the source): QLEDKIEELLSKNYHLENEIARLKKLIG
binder,measurement,setting,value
DEIAALEAENAALKAKNAALKAEIAALEG [4H249-AA],interaction score,4H_BCR,-1.72
same,interaction score,4H_APH,-1.97
same,interaction score,4H249-AA,-0.781
same,interaction score,4H2611-AA,-1.99
same,interaction score,GCN2_T,-1.96
same,interaction score,4H3381-AA,-1.79
same,interaction score,4H_GCN4,-1.66
DENAALEAKIAALKAKNAALKAEIAALEG [4H1401-AA],interaction score,4H3865-AA,0.227
same,interaction score,4H_BCR,-1.64
same,interaction score,4H_APH,-1.86
same,interaction score,4H2611-AA,-1.66
same,interaction score,4H3697-AA,-0.792
same,interaction score,4H717-AA,-1.5
same,interaction score,GCN2_T,-1.62
same,interaction score,4H_GCN4,-1.67
same,interaction score,4H3606-AA; mean of both orientations,2.07
same,interaction score,4H3718-AA; mean of both orientations,0.196
same,interaction score,4H3631-AA,-1.4
same,interaction score,4H697-AA,-1.39
same,interaction score,4H982-AA,-0.483
DKNAALKAEIAALEAENAALEAKIAALKG [4H3606-AA],interaction score,4H3865-AA,1.86
same,interaction score,4H_BCR,-0.919
same,interaction score,4H570-AA,-2.43
same,interaction score,4H_APH,-1.27
same,interaction score,4H3697-AA,1.42
same,interaction score,4H717-AA,-1.65
same,interaction score,GCN2_T,-0.266
same,interaction score,4H_GCN4,-0.288
same,interaction score,4H3606-AA,-0.0341
same,interaction score,4H3718-AA,-1.15
same,interaction score,4H3631-AA,-0.831
same,interaction score,4H697-AA,-0.116
same,interaction score,4H982-AA,0.00779
DENAALKAKIAALEAKNAALEAKIAALEG [4H1845-AA],interaction score,4H3865-AA,-1.31
same,interaction score,4H2611-AA,-1.56
same,interaction score,4H3697-AA,-1.83
same,interaction score,4H717-AA,-1.01
same,interaction score,4H797-AA,-0.965
same,interaction score,4H3606-AA; mean of both orientations,-0.353
same,interaction score,4H3718-AA; mean of both orientations,-1.65
same,interaction score,4H3631-AA,-1.57
same,interaction score,4H697-AA,-1.65
same,interaction score,4H982-AA,-1.6
DENAALEAKIAALKAKIAALKAEIAALEG [4H1385-AA],interaction score,4H2725-AA,0.284
same,interaction score,4H3865-AA,-1.52
same,interaction score,4H3753-AA,-0.82
same,interaction score,4H629-AA,-1.12
same,interaction score,4H2253-AA,-1.44
same,interaction score,4H2473-AA,-0.93
same,interaction score,4H3009-AA,1.33
same,interaction score,4H_BCR,-1.56
same,interaction score,4H570-AA; mean of both orientations,-0.556
same,interaction score,4H_APH,-1.13
same,interaction score,4H710-AA,-0.564
same,interaction score,4H3697-AA,-0.69
same,interaction score,4H3395-AA,0.689
same,interaction score,4H3590-AA,2.4
same,interaction score,4H2438-AA,1.55
same,interaction score,4H745-AA,-1.3
same,interaction score,4H909-AA,-1.36
same,interaction score,4H2274-AA,-0.953
same,interaction score,GCN2_T; mean of both orientations,-1.2
same,interaction score,4H3381-AA,-1.28
same,interaction score,4H850-AA,-0.784
same,interaction score,4H458-AA,-0.706
same,interaction score,4H3120-AA,0.706
same,interaction score,4H3130-AA,-0.837
same,interaction score,4H797-AA,-1.08
same,interaction score,4H_GCN4,-1.45
same,interaction score,4H3410-AA,-0.247
same,interaction score,4H3165-AA,-1.48
same,interaction score,4H3016-AA,-0.959
same,interaction score,4H2865-AA,-0.751
same,interaction score,4H536-AA,1.04
same,interaction score,4H2389-AA,-1.15
same,interaction score,4H2330-AA,-1.41
same,interaction score,4H930-AA,-1.18
same,interaction score,4H891-AA,-1.56
